For assay [1], the target named is MBP-tagged G2L4 RT dimer interface NTE + Thumb mutant (R12/Y15/R398A). The experiment in a line: native gel or EMSA. (Mobility shift assays separate free from complexed probe on a gel.)
The target in assay [2] is MBP-tagged G2L4 RT dimer interface Thumb mutant (R397/R398/R404A). The assay can be described thus: native gel or EMSA.
Assay [3] has as its target MBP-tagged wild-type G2L4 RT. The assay can be described thus: SEC. In general terms: Size exclusion chromatography separates by hydrodynamic size, large species first.

From paper PMC11761039 come the findings set out here.

On to “MBP-tagged G2L4 RT dimer interface NTE + Thumb mutant (R12/Y15/R398A) (enzyme)”, for which, in assay [1], the proportion of monomers came to 36%. In assay [2], “MBP-tagged G2L4 RT dimer interface Thumb mutant (R397/R398/R404A) (enzyme)” registered a proportion of monomers of 25%.

The term stoichiometry N denotes the number of molecules, sites or subunits per partner or assembly. As for MBP-tagged wild-type G2L4 RT (enzyme), the stoichiometry N in assay [3] was determined as 2.
